Results from publication PMC4887326 (2016).

Legend:
[1] = target: YfiB^L43P/F57A (residues 34–168) (P. aeruginosa, UniProt Q9I4L6 34-168, L43P | F57A); test: ITC
[2] = target: YfiB^L43P (residues 34–168), purified alone (P. aeruginosa, UniProt Q9I4L6 34-168, L43P); test: ITC

B1: YfiR (residues 35–190), purified alone (domain or fragment)
chain: DDARTSIEQRSNAVSQVLLGIFSYVRWPKEPAVLQLCVVGPTEYADGLLRGMVQANGRRVHAERRAVDNPDLGTLCNVIYLGVVDERERQQVFRSLAGHPVLSISERGTECSVGSMFCLNVGGPRITFEANLDSIARSGVRVHPSVLKLARRQATP
Ka [1]: 1.87e+06 M⁻¹ | Ka [2]: 7.12e+06 M⁻¹
